Laboratory results published in the supplement of paper PMC9170038.

Tested on: MS2 coat protein
Assay: apparent KD of MS2 coat protein; designed switch direction (-1 OFF switch, 1 ON switch): -1; higher = weaker reporter binding
Outline: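 An oligonucleotide input, 200 uM small-molecule ligand, or no input was present during titration of SNAP-549-labelled MS2 coat protein, which was doubled from 0.7 or 1.5 nM to 3 µM. Designed RNA switches had been transcribed on Illumina chips by stalled E. coli RNA polymerase. Apparent KD per design is the median over clusters of curves fitted to normalised cluster fluorescence.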

[1] = input ligand: microRNA oligo, concentration not stated
[2] = Eterna round: R95, input ligand: FMN 200 uM
[3] = Eterna round: R95, input ligand: microRNA oligo, concentration not stated
[4] = Eterna round: R95, input ligand: none

Row | Sequence | apparent KD of MS2 coat protein [1] [µM] | apparent KD of MS2 coat protein [2] [µM] | apparent KD of MS2 coat protein [3] [µM] | apparent KD of MS2 coat protein [4] [µM] | apparent KD of MS2 coat protein (input ligand: FMN 200 uM) [µM] | apparent KD of MS2 coat protein (input ligand: none) [µM]
1 | AUCUUGUCAGGAUAUCGUACAAUAUGGAAAACAUAGAGGUACGAGAAGGGACAUGAGGAUCACCCAUGUAAAAC (Eterna round: R96, puzzle: Exclusion 4) | 0.029 |  |  |  |  | 
2 | AAUAAACGAGGAUAUACUAAAAUAUGAAUAAAAUAAAUAAAACAUGAGGAUCACCCAUGUAGAAGGCGUAAUAA [JMF's Not so obvious solution 4] (puzzle: Exclusion 2) |  | 0.0213 | 0.0234 | 0.0214 |  | 
3 | CUGAGGUAGCGGUCCUAUGACAUGAGGAUCACCCAUGUACCUUGCUUUGAGCUUUAUGCUCGUCUUAUGAUUCUCGG [Mat - Sensor v3 - turn-off var 1 - JL Mod - D42] (puzzle: Sensor v3, turn-off variant 1) |  | 0.585 | 0.537 | 0.546 |  | 
4 | CUAGAUCUUCGGAUCUAGGACAUGAGGAUCACCCAUGUCACGAGCAGAUCCUCAUGCAAGCUUUUUGCUCGUCUUAU [Sensor v3 - Turn-off variant 1 - 36] (puzzle: Sensor v3, turn-off variant 1) |  | 0.133 | 0.0174 | 0.0701 |  | 
5 | AGUAGUAGUAUCCGAUCCUACAUGAGGAUCACCCAUGUAGCUAGACGUGCACGCGAUGCGCGUCAGACUACCAGAUG [salish99_TOv1_r3_042] (puzzle: Sensor v3, turn-off variant 1) |  | 0.184 | 0.159 | 0.24 |  | 
6 | CGGGAGGGACAAGCUGUUUGCACGUCUGGUAGUGAUGCAACAUGAGGAUCACCCAUGUAUAGGGUGUGAGAGGAUGG [JR_SV3TOV2_Sub050] (Eterna round: R96, puzzle: Sensor v3, turn-off variant 2) | 0.149 |  |  |  | 1.33 | 0.338
7 | AGAUGUAGAUACCGAUCCUACAUGAGGAUCACCCAUGUAGCUAGACGUGCGCGCGGCGCUCGUCAGACUACCAGUAG [salish99_TOv1_r3_093] (Eterna round: R96, puzzle: Sensor v3, turn-off variant 1) | 0.25 |  |  |  | 0.499 | 0.364
8 | CGGCAAUCCUAGGAUAUGCUAGACGAUAGUCUAGCAGAAGGAGGAACAUGAGGAUCACCCAUGUGUCCUAGCCG [Mat - Exclusion 6 - Eli Mod - D14] (Eterna round: R97, puzzle: Exclusion 6) |  |  |  |  | 0.0178 | 0.0144
9 | GUCUUACAUGAGGAUCACCCAUGUGAGGAUAUGGUUUCGCUGGCCGUAGCCAGUGGAACCAGAAGGCGCGUGAU [Mat - Exclusion 1 - JL Mod - D20] (Eterna round: R97, puzzle: Exclusion 1) |  |  |  |  | 0.0731 | 0.0728
10 | AAAUAGUUAGGAUAUACAUGAGGAUCACCCAUGUAGGGUUCCGUCAUGCAGAAAAUGCGUAGAAGGAACUAUCC [EX3 A.22] (Eterna round: R97, puzzle: Exclusion 3) |  |  |  |  | 0.0166 | 0.0176
11 | ACAAGCUUUUUGUUCGUCUUAUAAUAAUAAAUAAAUAUAACAUGAGGAUCACCCAUGUUGAGAAGACGGCCUCAUGU [Sesor Array 22 - Jieux - Sensor v3, turn-off variant 2] (puzzle: Sensor v3, turn-off variant 2) |  | 0.134 | 0.0318 | 0.203 |  | 
12 | AACAGCACAGGAUAUACAUGAGGAUCACCCAUGUGAGAAUUAAGUAGAUUGCCACAGAGUAGAAGGGUGCUGGA [Ruby 99] (Eterna round: R96, puzzle: Exclusion 3) | 0.0364 |  |  |  | 0.0889 | 0.0389
13 | CCUCGACAUGAGGAUCACCCAUGUCAGGAUAUUGUGUCUCGGGUUUUUUACCGAUAGGCAAGAAGGGAUGUGUG [LRO-Excl1-13] (puzzle: Exclusion 1) |  |  | 0.0215 |  |  | 
14 | UUUAGUUCAGGAUAUGUAGAUUUUAACAUGAGGAUCACCCAUGUAGAUCCUGAAUUAACUACAGAAGGGAACAUUU [Exclusion 5: 2:a] (Eterna round: R96, puzzle: Exclusion 5) | 0.0202 |  |  |  | 0.0943 | 0.0243
15 | AGUCGGCGAGGAUAUACAUGAGGAUCACCCAUGUGAUAGAGUGCACGCGUACGUGUAUGUAGAAGGCGCUGACA [Mat - Exclusion 3 - Mod of JL D97] (puzzle: Exclusion 3) |  |  | 0.0614 |  |  | 
16 | AGCCACAGAGGAUAUACAUACAUCCAGUAGUUAAGAAUACAACAUGAGGAUCACCCAUGUAGAAGGCUGUGGCA [Omei Ex2 BD B9] (Eterna round: R97, puzzle: Exclusion 2) |  |  |  |  | 0.348 | 0.103
17 | GAUCAUGCAGGAUAUACAUGGAUCAUGAAAACAUGAAUUUCACAUGAGGAUCACCCAUGUAGAAGGGCAUGAUC [Omei Ex2 A11] (Eterna round: R97, puzzle: Exclusion 2) |  |  |  |  | 0.0139 | 0.293

Row | Sequence | apparent KD of MS2 coat protein [1] [µM] | apparent KD of MS2 coat protein [2] [µM] | apparent KD of MS2 coat protein [3] [µM] | apparent KD of MS2 coat protein [4] [µM] | apparent KD of MS2 coat protein (input ligand: FMN 200 uM) [µM] | apparent KD of MS2 coat protein (input ligand: none) [µM]
18 | UACAUGAGGAUCACCCAUGUUUUGUCGUGUUUGGUACCCGUUUAGGAUAUCGUGUUAUUGGAUCGCGAGAAGGAGAGUAUCUUU [Excl-NG3-LRO08] (Eterna round: R96, puzzle: Exclusion NG 3) | 0.026 |  |  |  | 0.0268 | 0.0317
19 | GUCAUCAAUCAUGGGAUAAACAUGAGGAUCACCCAUGUAUACAAGUUUUUUGCUCGUCUUAUAAUAAGAUUGAUGAC [Antenna 5 - Jieux - Sensor, turn-off variant 1] (Eterna round: R97, puzzle: Sensor, turn-off variant 1) |  |  |  |  | 0.0137 | 0.0159
20 | AAAUAAUAGAUAAAAUAACACAUGAGGAUCACCCAUGUGCGAUGUUGAGGGUGAUACAGGCUUUUUGCUCGUCUUAU (puzzle: Sensor v3, turn-off variant 1) |  | 0.0987 | 0.225 | 0.132 |  | 
21 | CUUUUGUGAGGAUAUUAGUAGUAAAUAAAUAAAAUUACUACUGAGAAGGCACAUGAGGAUCACCCAUGUUUCUC [salish99_ex4_r3_065] (puzzle: Exclusion 4) |  |  | 0.0319 |  |  | 
22 | AGUCGGUCAGGAUAUGCAAUUGUGGACAUGAGGAUCACCCAUGUAACGUGGGCCUGGUUUGUAGAAGGGACGUGCA [EX5 #89] (Eterna round: R97, puzzle: Exclusion 5) |  |  |  |  | 0.105 | 0.089
23 | CUGCUCCGUGUAGGAUAUCCGGGCAACCAAUCCGGAGAAGGACAUGAGGAUCACCCAUGUAUGUUAUUAUCACGUGAAGCGUCC [Design 25] (Eterna round: R96, puzzle: Exclusion NG 1) | 0.0156 |  |  |  |  | 
24 | GAAUAACAAGCGAGAUCCUACAUGAGGAUCACCCAUGUGCUCGUCUUAUAAAGUACUAUCACGAAAGUGAUAGUACA [Mat - Sensor v3 - turn-off var 1 - Eli Mod - D62] (puzzle: Sensor v3, turn-off variant 1) |  | 0.0162 | 0.2 | 0.0175 |  | 
25 | UCCUGGUCAGGAUAUUGCAGGUCGUACGCUCUGAGUCUAGGCAAGAAGGGACAUGAGGAUCACCCAUGUGGGCG [Eternabot (L1) Solution 4] (Eterna round: R97, puzzle: Exclusion 4) |  |  |  |  | 0.406 | 0.187
26 | UUAAUUACGGUGCUUUAACCUCACAUGAGGAUCACCCAUGUGCAGGAUAUCAGCUCGAUUAGAGCUGAGAAGGGCACUGCACCG [ExNG3/11-A1] (Eterna round: R96, puzzle: Exclusion NG 3) | 0.00995 |  |  |  | 0.0151 | 0.0125
27 | CCGCAAAAGGAGGAUAUCGUAUCGGAUACGAUACGAGAAGGCUUUACAUGAGGAUCACCCAUGUGUCCUAGCGG [Fiskers Ex 6 - 47] (puzzle: Exclusion 6) |  |  | 0.0134 |  |  | 
28 | GGUGAGAGCAAGGAUAUGCAGAAGAGAGAAAGAGCAGAAGGUGCUACAUGAGGAUCACCCAUGUAGGAUGUGUU [JR_E6_Sub013] (puzzle: Exclusion 6) |  | 0.0152 | 0.0134 | 0.0134 |  | 
29 | CCGUAGUCAGGAUAUACAUGAGGAUCACCCAUGUAAAAUUUUAAUUUAAUUUGAAGGUGUAGAAGGGACCAGUC [Ex3 #27] (Eterna round: R97, puzzle: Exclusion 3) |  |  |  |  | 0.0349 | 0.0333
30 | UCAGAGCGAGGAUAUGCUGGUGUUAUUCACAUUUGUCCGCGACAUGAGGAUCACCCAUGUAGAAGGCGUAGCCA [Eternabot (L2) Solution 44] (Eterna round: R97, puzzle: Exclusion 2) |  |  |  |  | 0.104 | 0.0769
31 | CAUUAUUAUCGAGGAUAUCCUAUUGAAAUUCUGGGAGAAGGCGGACUCAACAUGAGGAUCACCCAUGUGGGACGGAUGCUAGGG [Ex NG1 #28] (Eterna round: R96, puzzle: Exclusion NG 1) | 0.0175 |  |  |  |  | 
32 | CCAAGCUUAUUCAUUAACCACAUGAGGAUCACCCAUGUCUUGGCAAUUAUGACUUGCCCGUCAGGUGCUCGUCUUAU [Sensor-V1 #34] (Eterna round: R97, puzzle: Sensor, turn-off variant 1) |  |  |  |  | 0.0322 | 0.0329
33 | GGCAUAAACGAGGAUAUCGUUACGGAAACGUAACGAGAAGGUGUAACAUGAGGAUCACCCAUGUUCCUCAAGCC [Mat - Exclusion 6 - Eli Mod - D59] (Eterna round: R96, puzzle: Exclusion 6) | 0.0298 |  |  |  | 0.0368 | 0.038
34 | GCCUCACUUGAGGAUCACCCAAGUCAGGAUAUAUCACUAGCGUGGAAACCACGCUGGCAUAGAAGGGACAAAGA [Ergeeddi] (Eterna round: R97, puzzle: Exclusion 1) |  |  |  |  | 0.0271 | 0.0173
